In the nanobody polyreactivity screen of Harvey et al. (2022):

Experiment: yeast display, Sf9 membrane polyspecificity reagent, FACS + sequencing; frameworks hold sequencing errors
Summary of the method: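 Using colony PCR, genes from sorted yeast display clones were amplified, then sequenced on MiSeq at 2 × 250 and filtered by CDR length. The clones had been stained with 10% biotinylated, detergent-solubilized Sf9 membrane reagent for 1 hour at 4 °C and sorted by FACS into low and high (top ~1%) gates on anti-HA and streptavidin fluorescence. Polyreactivity labels come from the gate of origin.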

Row | Sequence | polyreactivity (PSR sort gate)
1 | QVQIVESVGCLVQARGSLRLSSAASGFILVINAMGWYRQAPGKERELVAAINGGDITNYADSVKGRFTFSRDNAKNNVYLQMNSLKPEDTAVYYCSADGEDSLWTGYDYDYWGLGTQVTVSS | low polyreactivity
2 | QDQLVESGGGSVQAGGSLRLSCAAYGRIYILYAMGWYRQAPGQERELVAAISWSGGSTYYADSVKGRFTISRDNAKKTVDGQRNSLKPEYTAVYYCNVVSKYKHTYDFDYWGQGTQVNVSS | high polyreactivity
3 | QVQLVESGGGLVQAGGSLRLSCAASGRIFPKYAMGWYRQAPGKERELVAAISRRGSSTYYADSVKGRFTISRDNAKNTVYLQMTSLKPEDTAVYYCATDARDGHDYWGQGTQVTVSS | high polyreactivity
4 | QVQLVESGGGLVHAGGSLRLSCAASGFIFAANAKGWYRQAPGKERELVAAINYRGSSTYYADSVKGRFTISRDNAKNTVYLQMNSLKPYDTAVYYCAAVSSIYSGYGYWGQGTQVTVSS | high polyreactivity
5 | QVQLVESGGGLGQAGGSLRLSCAASGFTFYYYAMGWYRQAPGKERELVAAISYSGGSTYYADSVKGRFTISRDNAKNTVYLQMNSLKPEDTARYYCAADLSTYSRGFDYWGQGTQVTVSS | high polyreactivity
6 | QVQLVESGGDLVQAGGSLRLSCAATGYTFLRYTMGWYRQAPGKERELVAAITSGTSTYYADSVKGRFTISRDNEKNTVYLQMNSLKPEDTAVYYCDKTPTRQRYGHWGQGTQVTVSS | high polyreactivity
7 | QVQLVESGGGLVQAGGSLRLSCAASGRIFTRNAMGWYRQAPGKERQLVAAISHSGGSTYADSVKGRFTISRDNAKNTVYLQMNSLKPEDTAVYYCAADSPYGYYEGDYCGQGTQVTVSS | low polyreactivity
8 | QVQLVESGGGLLQAGGSLRLSCAASGRIFAVYAMGWYRQAPGKEREFVAAISYSGGITYYADSVKGRFTISRDNAKNTVYLQMNSLKPEDSAVFYCNSYYYFWGQGTQVTVSS | low polyreactivity
9 | QVQLVESGGGLVQAGGSLRLSCAASGSIFGYYTMGWYRQAPGKERELVATISRSGGSTYYADSVKGRFTISRDNAKNTVYLQMNSLKPEDTAVYYCAARSWGGYDSRGYWGQGTQVTVSS | high polyreactivity
10 | QVQRVESGGGLVQAGGSLRLSCAASGYTFQWYDMGWYRQAPGKERELVASISWRGGSTYYADSVKGRFTISRDNAKNTVYFQMNSLKPEDTAVYYCAASLLPDYQYDYWGQGTQVTVSS | low polyreactivity
11 | QVQLVESGGGLVQAGGSLRLSCAASGIILNYNAMGWYRQAPGKERELVAVIRTRGGSTYYADSVKGRFTISRDNAKNTVYLQMNSLKPEDTAVYYCAAKQIPWHRGGFGYDYWGQGSQVTVSS | low polyreactivity
12 | QVQLVESGGGLVQAGGSLRLSCAASGRIVSVNAMGWYRQAPGKERVLVAAITSGGRTNYADSVKGRFTISRDNAKNTVYLQMNSLNPEDTAVYFCAAPYLKGGEDEYWGQGTQVTVSS | high polyreactivity
13 | QVQLVESGGGLVQAGGSLRLSCAASGGTFTYSPMGWDREATGTERELVAAITDGGSTYYAVSVKGRFTISRDNAKTTFYLQMNSLKPEDTAVYYCAVRVRHNSKNTFFPYSYGYWGQGTQVTVSS | low polyreactivity
14 | QVQLVESGGGLVQAGGSLRLSCAASGSTFWWYAMGWYRQAPGKERELVAAISIGGATKYADSVKGRFTISRDNAKNTFYLQMNILKPEDTAVYYCAAVVSYHYVPYGYWGQCTQVTVSS | low polyreactivity
15 | QVQLVESGGGLVQAGGSLRLSCAASGFTFGYYTMGWYRPEAGKEWELVAAISNSGGRTYYADSVKGRFTISLDYAKNTVYFQMNSLKPEDTAVYYCAKAYRTPGYDSWGQGTQVTVSS | high polyreactivity
16 | QVQLVESGGGLVQAGGSLRLSCAASGRIFGPYAMGWYRQAPGKERELVAAITQRGGSTSYADSVKGRFTISRDNAKKTVYLQMNSLKPEDTAVYYCNVLSYGSIPRRGYYYVWGDYWGQGTQVTVSS | high polyreactivity
17 | QVQLVESGGGLVQAGGSLRLSCAASGRTFYANTMGRYRQAPGTERELVAGITSGGSTSYADSVKGRFTISRDNAKNTVYLQMNSLKPEDTAVYYCAAQFYRYTATGYYADGYWGQGTQVTVSS | low polyreactivity
